# Reference: the supplement of paper PMC12764529
# ± gives the half width of the 95% confidence interval.
# Test: folding stability dG unfold from chymotrypsin proteolysis; higher = more stable
# How it was run: (§1)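 Mini-proteins designed to be under 80 residues and free of cysteine were carried in a PA-tagged cDNA display construct and digested with trypsin and with chymotrypsin. Each protease was applied at 11 threefold-diluted concentrations, alongside a no-protease condition, before sequencing. K50 came from Bayesian fitting of the sequencing counts, and unfolding free energy was obtained by comparing it with a sequence-predicted unfolded-state K50 and a shared folded-state K50, for each protease separately or for both together. Designs were retained only if their AlphaFold2 dimer inter-PAE exceeded 15.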
row,Sequence,folding stability dG unfold
1,SMEVEFDPENRTIVATVPEGVDPLAVAATLLAVVRELFDSGPVRLIVTNGDEVLEYLLGEDVLEVRPAGESA [r9_224_TrMRF],4.21 ± 0.11 kcal/mol
2,SAGGSAGGSAGKIIEELKKKGYKVEVIKDKKTKKYYVKITVTDKKGNKKTITIPLKDIKPSAGGSAGGSAGG [r17_311_TrROS_Hall],4 ± 0.21 kcal/mol
3,SAGGMSITLTPDDGSTLTIPLSDPTLSLEEVVQMVVDKQEGAVNIQVTITFPDSEVTKTYTIPSPGGSAGGS [r16_216_JUSTAS],0.275 ± 0.13 kcal/mol
4,WMWVIKVRNPKNGKKRTIMIPDDPERAKNQIKNLKKQDPNMTVEIIGIKEPEVRKAAKEAGLDDIEVEPMPS [r1_114_TrROS],0.666 ± 0.34 kcal/mol
5,SAGGSAGGSAGGENPVDFKARVELLSGVVELTYTNEDGEPTTTLEEVVALKIEIEPSNNSAGGSAGGSAGGS [r10_1212_TrMRF],1.81 ± 0.062 kcal/mol
6,SAGGSAGGSAGGGSMPLLTETRKSLVVDPETGRLREVTTTTIRFPDRNTSQVTTTVTPVSSAGGSAGGSAGG [r7_196_JUSTAS],0.139 ± 0.081 kcal/mol
7,SAGGSAGGSAGSFTVLVTEVLDPDDPLYLKLQKELGLPPENIVRFKLYTFSSPEEVKKKISAGGSAGGSAGG [r11_83_TrMRF],1.99 ± 0.13 kcal/mol
8,SALVPIKGKYPVYEMRPEKDPNGNMKPEMRPVKVPIEFPFVVIDPENGKWVPADDIDPEDGRLVAPGLISAG [r14_122_TrROS],-0.25 ± 0.045 kcal/mol
9,SAGGSAGGSTTLTVDLPFGPATVHITGLPDSFVAFIEFDNPPFRATATIKEISKNGIVIEDIDFSAGGSAGG [r6_982_TrMRF],1.9 ± 0.13 kcal/mol
10,SAGGGMAPDTPVTVRIEITLPDGTRRVLDIPGRAGDPALLEAIAAELREEGYEVREIRPVEGRIVVASAGGS [r8_497_JUSTAS],2.81 ± 0.08 kcal/mol
11,SAGGMVLVERDGDRLVLLIPFPADEPPTPEEVEAEARAILRELGPDVRIRSVHRLPDGGYLVEAEVDSAGGS [r8_103_TrMRF],3.69 ± 0.038 kcal/mol
12,SAGGVERDPPGKNVYYVEIEIKIEIRDPNNGKPLEIPVPITYPFKSPADALEQMRRQARNLAEKLLNSAGGS [r16_624_TrROS],2.18 ± 0.1 kcal/mol
13,SAGGSAGGSGPMPVVVPVEVVVAPGEVDAYVARLRAEGLEVLSVETEPDPEGGTRVTVTVRRLSAGGSAGGS [r12_905_JUSTAS],3.72 ± 0.057 kcal/mol
14,SAGGSAAGYAVLVRVEEVRLTSFRRRADGSLLEVDPDVELKLEVLAVFRIYPSPGDGWVVDPSDPASAGGSA [r15_162_TrMRF],3.827 ± 0.025 kcal/mol
15,SAGPIKIVVNPDGMLIMVFPHPDGSLMVMIFTFKPNPKNGKRRFEMEMIMIDPDPGDPHVMTMRFEIPPSAG [r5_424_TrROS],4.88 ± 0.09 kcal/mol
16,SAGGSAGGSMEPIDLSIVEIKEELLPSGKKKYIVTIETPGKKVKKYTFPPDISIEDIKKLILNSAGGSAGGS [r20_115_JUSTAS],2.881 ± 0.026 kcal/mol
17,SAGMIEKLIREAFPAGAKSIRIEVRRLPDGSLLVRIDIHFDDPEVRRALADRIEELLGLPIPDLRVSPDSAG [r5_542_TrMRF],3.067 ± 0.028 kcal/mol
18,SAGGSAPVEVRVSVEVLPDGTLRITVEFTLPNGEKLSVEFTIPLAPVPVVDLTSPEALFPALSLLSSAGGSA [r15_1018_TrMRF],2.41 ± 0.069 kcal/mol
19,SAGGSAGGMRVRLTFPDGSVVELDLSSLPFSPEEVERAGEEELRALLEEAYPDREIELERVPEPSAGGSAGG [r6_165_JUSTAS],2.93 ± 0.032 kcal/mol
20,SAGKYVTFNFPINIPPGDIKQMLNMIRDIARNLGLKPITDIEIDNIQRDDDYYRIRFEITIKVPPGDLKSAG [r5_575_TrROS],4.29 ± 0.12 kcal/mol
21,SAGGMSTTYTLKYPGTTVTVTFNPGSVTVDDTDPANPVTKPLPVPPGKPLTLAEVKAALAAAGYAVAESAGG [r13_687_JUSTAS],0.0182 ± 0.33 kcal/mol

# Test: folding stability dG unfold from trypsin proteolysis; higher = more stable
# How it was run: as §1
row,Sequence,folding stability dG unfold
1,SAGGKEIYKVNKKDFKKILDYLKKKKNAKITIIIKNKPIEIPIKDLEENYKKIKGKPNEPFYLEIEYSAGGS [r16_377_TrMRF],1.75 ± 0.087 kcal/mol
2,SAGTIKEIAETIAEFMRQNGMNIKVKLTEVDPNDPNYVKVRVEIEMWYYKKNGKPLGPMRHTMTIVIRSAGG [r19_418_TrROS],2.84 ± 0.11 kcal/mol
3,SAGGMTKTESEVFFEPDGSSSSAKVTITVDDGPLTANVTISPDSVTTTINYPDGSTVTTTTSVSPAASAGGS [r16_108_JUSTAS],0.942 ± 0.081 kcal/mol
4,SAGWHEIEIEIMIPFPKENAEELAKEIAEEIARMHGFKITNIEVQVYPTDGEYYVMIPVKIRIPPPNDTSAG [r14_219_TrROS],2.81 ± 0.061 kcal/mol
5,SKTLTLEVEVPEGPVRIVVEASDGSRLEAEVPADEKVTFTIPIPPDIPEETKVTVRVYNPETGEVTELEASA [r9_275_TrMRF],0.353 ± 0.063 kcal/mol
6,SAGGSYRVETTKTEVSEATAPDGTAYRVTTTTTVVTYPDGTRRTVTNVTITDPATGVPTSSTATTTAVSAGG [r13_133_JUSTAS],2.45 ± 0.048 kcal/mol
7,SAGGSAGGSAGSKKAVIGGDGATVTYYPPLGYALVTFPDGTAALVDLKTGEIVEIAKTNDSAGGSAGGSAGG [r11_149_TrMRF],1.04 ± 0.059 kcal/mol
8,SAGGSAGGSAMQRVEIYFPGLKKVFTKPFKSLEEVEEAVKELLGPEYNPEKVEIKILPENAESAGGSAGGSA [r18_350_TrMRF],0.912 ± 0.054 kcal/mol
9,SAGGSAGGSAGKPKEIFVFDKEIDADEAVALLPDEVKEVVVFDIEEAREKGGILIKAVVDSAGGSAGGSAGG [r11_1002_TrMRF],-1.18 ± 0.61 kcal/mol
10,SAGGSAGGSSLTVTYDPSTGTLTITVPEDQTSVKIKYGDKTYTVPLPPGQTFTVPANTFTLESSAGGSAGGS [r20_26_TrMRF],0.745 ± 0.071 kcal/mol
11,SAGGSAGGSMVIRVTTKDGEEVELEIEGMSLEEIKALLPEGVKEVKIEKVEVEPVEVEEEEEESAGGSAGGS [r12_767_TrROS_Hall],1.31 ± 0.1 kcal/mol
12,SAGGSAGGSAGGVTIVIGTDKDIPAEVIEKEVADELLKAGIPPDVKVNVVVVPIDPDALSAGGSAGGSAGGS [r10_746_TrMRF],1.1 ± 0.042 kcal/mol
13,SAGGKPPNLKIKIEVIPIPNGYWIITFRIKVPPNEPLKIRFPDFGREIEFPPGDEVTIMILIPPDDLSAGGS [r16_56_TrROS],3.64 ± 0.2 kcal/mol
14,SAGGSMYLIRITVRNKDGEEVLTIERRVRLEDGKSLEEVAEELRRALESLPNLEVVDVEVVPLEELSAGGSA [r2_192_TrROS_Hall],4.3 ± 0.072 kcal/mol
15,SAGGMKVYKISFPNATVTYEEETGKVTINPPDGSTKVIEISPDISIEEVAKKLAEELGFTEATITPEPSAGG [r13_852_JUSTAS],1.59 ± 0.095 kcal/mol
16,SAGGSAGGDGPGAPPVPRIRIKVEFEHNGKKVTWEFRSLDDMKEQVKERFKENGLKVKITEIEWSAGGSAGG [r6_869_TrROS],1.67 ± 0.06 kcal/mol
17,SAGGSAGGSEKEVYVRNENGELYRFRAKAAPKLKLKLKLELERDENGNLSLRLELEVVSEEDLSAGGSAGGS [r12_1027_TrROS_Hall],3.57 ± 0.14 kcal/mol
18,SAGGSAGGKTLTIKLKDSTVTIELPSSISSISRIEVHSDGSLTLYHSSTGSTITLPIPPKIDNPSAGGSAGG [r6_369_TrMRF],1.74 ± 0.058 kcal/mol
19,SAGGMKLTPEAKKLAEELKKEGKKVKIEKKDGYYVLTVDGKVYKSKEDMEKAAKDPNVKKVIVIKLPSAGGS [r16_275_TrROS_Hall],0.519 ± 0.13 kcal/mol
20,SMPEKVTFPFNIPLEEYSLEEIKEAVRERLEKEGYKVLKPDLFPEQEKLAKEAPPEAELPLLVEALVVPGSA [r9_1163_TrMRF],0.411 ± 0.078 kcal/mol
21,SAGGSAGGSAGVLSLEGVVSTEEFEDPSSSNKTLVITLPGGERVVVNLPSSPSSVVTRLVSAGGSAGGSAGG [r17_182_JUSTAS],0.215 ± 0.028 kcal/mol

row,Sequence,folding stability dG unfold
1,SMEVEFDPENRTIVATVPEGVDPLAVAATLLAVVRELFDSGPVRLIVTNGDEVLEYLLGEDVLEVRPAGESA [r9_224_TrMRF],3.26 ± 0.11 kcal/mol
2,SAGGSAGGSAGKIIEELKKKGYKVEVIKDKKTKKYYVKITVTDKKGNKKTITIPLKDIKPSAGGSAGGSAGG [r17_311_TrROS_Hall],2.8 ± 0.23 kcal/mol
3,SAGGMSITLTPDDGSTLTIPLSDPTLSLEEVVQMVVDKQEGAVNIQVTITFPDSEVTKTYTIPSPGGSAGGS [r16_216_JUSTAS],0.846 ± 0.041 kcal/mol
4,WMWVIKVRNPKNGKKRTIMIPDDPERAKNQIKNLKKQDPNMTVEIIGIKEPEVRKAAKEAGLDDIEVEPMPS [r1_114_TrROS],0.758 ± 0.091 kcal/mol
5,SAGGSAGGSAGGENPVDFKARVELLSGVVELTYTNEDGEPTTTLEEVVALKIEIEPSNNSAGGSAGGSAGGS [r10_1212_TrMRF],1.23 ± 0.046 kcal/mol
6,SAGGSAGGSAGGGSMPLLTETRKSLVVDPETGRLREVTTTTIRFPDRNTSQVTTTVTPVSSAGGSAGGSAGG [r7_196_JUSTAS],0.771 ± 0.063 kcal/mol
7,SAGGSAGGSAGSFTVLVTEVLDPDDPLYLKLQKELGLPPENIVRFKLYTFSSPEEVKKKISAGGSAGGSAGG [r11_83_TrMRF],0.923 ± 0.035 kcal/mol
8,SALVPIKGKYPVYEMRPEKDPNGNMKPEMRPVKVPIEFPFVVIDPENGKWVPADDIDPEDGRLVAPGLISAG [r14_122_TrROS],1.14 ± 0.051 kcal/mol
9,SAGGSAGGSTTLTVDLPFGPATVHITGLPDSFVAFIEFDNPPFRATATIKEISKNGIVIEDIDFSAGGSAGG [r6_982_TrMRF],2.2 ± 0.086 kcal/mol
10,SAGGGMAPDTPVTVRIEITLPDGTRRVLDIPGRAGDPALLEAIAAELREEGYEVREIRPVEGRIVVASAGGS [r8_497_JUSTAS],1.96 ± 0.028 kcal/mol
11,SAGGMVLVERDGDRLVLLIPFPADEPPTPEEVEAEARAILRELGPDVRIRSVHRLPDGGYLVEAEVDSAGGS [r8_103_TrMRF],3.17 ± 0.065 kcal/mol
12,SAGGVERDPPGKNVYYVEIEIKIEIRDPNNGKPLEIPVPITYPFKSPADALEQMRRQARNLAEKLLNSAGGS [r16_624_TrROS],1.78 ± 0.041 kcal/mol
13,SAGGSAGGSGPMPVVVPVEVVVAPGEVDAYVARLRAEGLEVLSVETEPDPEGGTRVTVTVRRLSAGGSAGGS [r12_905_JUSTAS],2.74 ± 0.054 kcal/mol
14,SAGGSAAGYAVLVRVEEVRLTSFRRRADGSLLEVDPDVELKLEVLAVFRIYPSPGDGWVVDPSDPASAGGSA [r15_162_TrMRF],2.73 ± 0.057 kcal/mol
15,SAGPIKIVVNPDGMLIMVFPHPDGSLMVMIFTFKPNPKNGKRRFEMEMIMIDPDPGDPHVMTMRFEIPPSAG [r5_424_TrROS],3.37 ± 0.15 kcal/mol
16,SAGGSAGGSMEPIDLSIVEIKEELLPSGKKKYIVTIETPGKKVKKYTFPPDISIEDIKKLILNSAGGSAGGS [r20_115_JUSTAS],2.17 ± 0.11 kcal/mol
17,SAGMIEKLIREAFPAGAKSIRIEVRRLPDGSLLVRIDIHFDDPEVRRALADRIEELLGLPIPDLRVSPDSAG [r5_542_TrMRF],2.26 ± 0.035 kcal/mol
18,SAGGSAPVEVRVSVEVLPDGTLRITVEFTLPNGEKLSVEFTIPLAPVPVVDLTSPEALFPALSLLSSAGGSA [r15_1018_TrMRF],2.43 ± 0.07 kcal/mol
19,SAGGSAGGMRVRLTFPDGSVVELDLSSLPFSPEEVERAGEEELRALLEEAYPDREIELERVPEPSAGGSAGG [r6_165_JUSTAS],2.13 ± 0.056 kcal/mol
20,SAGKYVTFNFPINIPPGDIKQMLNMIRDIARNLGLKPITDIEIDNIQRDDDYYRIRFEITIKVPPGDLKSAG [r5_575_TrROS],2.44 ± 0.18 kcal/mol
21,SAGGMSTTYTLKYPGTTVTVTFNPGSVTVDDTDPANPVTKPLPVPPGKPLTLAEVKAALAAAGYAVAESAGG [r13_687_JUSTAS],-0.204 ± 0.15 kcal/mol
